Assay [1] has as its target T1, his6-Sec18 (S. cerevisiae, UniProt P18759 1-758).
T1 sequence (looked up): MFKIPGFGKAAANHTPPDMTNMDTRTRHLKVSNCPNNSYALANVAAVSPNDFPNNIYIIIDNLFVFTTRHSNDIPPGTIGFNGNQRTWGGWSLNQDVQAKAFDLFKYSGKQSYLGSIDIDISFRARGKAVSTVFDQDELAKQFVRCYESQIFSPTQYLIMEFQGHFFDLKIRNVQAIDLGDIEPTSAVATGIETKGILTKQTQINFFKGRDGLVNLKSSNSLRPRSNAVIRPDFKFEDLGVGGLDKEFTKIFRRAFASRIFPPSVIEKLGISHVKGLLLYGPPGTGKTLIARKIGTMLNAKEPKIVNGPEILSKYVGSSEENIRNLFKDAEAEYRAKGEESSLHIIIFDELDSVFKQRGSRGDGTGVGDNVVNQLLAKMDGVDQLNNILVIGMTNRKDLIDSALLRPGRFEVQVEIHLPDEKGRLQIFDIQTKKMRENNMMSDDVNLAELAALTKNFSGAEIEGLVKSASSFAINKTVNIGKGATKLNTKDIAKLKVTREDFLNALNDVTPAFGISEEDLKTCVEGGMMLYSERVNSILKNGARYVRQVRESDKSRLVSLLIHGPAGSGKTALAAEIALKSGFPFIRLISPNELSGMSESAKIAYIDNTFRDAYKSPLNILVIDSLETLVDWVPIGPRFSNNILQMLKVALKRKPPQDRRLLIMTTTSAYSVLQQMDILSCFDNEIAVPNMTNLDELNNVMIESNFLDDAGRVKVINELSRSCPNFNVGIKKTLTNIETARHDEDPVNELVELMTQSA
Kind of assay: liposome co-floatation.

Assay [2] deals with T1, his6-Sec18. The assay can be described thus: liposome co-floatation. The source holds these as a separate data set.

The results in this text go back to publication PMC9634978 (Molecular Biology of the Cell, 2022).

Substitutions are numbered along the chain they refer to.

B1: Sec17-K159EK163E (natural protein, S. cerevisiae, UniProt P32602 1-292, looked up)
chain: MSDPVELLKRAEKKGVPSSGFMKLFSGSDSYKFEEAADLCVQAATIYRLRKELNLAGDSFLKAADYQKKAGNEDEAGNTYVEAYKCFKSGGNSVNAVDSLENAIQIFTHRGQFRRGANFKFELGEILENDLHDYAKAIDCYELAGEWYAQDQSVALSNECFIECADLKALDGQYIEASDIYSKLIKSSMGNRLSQWSLKDYFLKKGLCQLAATDAVAAARTLQEGQSEDPNFADSRESNFLKSLIDAVNEGDSEQLSEHCKEFDNFMRLDKWKITILNKIKESIQQQEDDLL
Consider B1, for which the binding result in the assay with his6-Sec18 [1] is “binds”.

B2: his6-Sec17 (natural protein, S. cerevisiae, UniProt P32602 1-292, looked up)
chain: B1 chain with E159K, E163K
Turning to B2, the “stoichiometry N” value with his6-Sec18 [2] was ~3 mol Sec17 per mol Sec18 hexamer.
